According to paper PMC7534572:

Experiments:
[1] = molecular target: HpiI (Hymenoscyphus scutula); test: crystal structure
[2] = molecular target: PdxI (Aspergillus bombycis); test: crystal structure

stoichiometry N [1]	stoichiometry N [2]	Substance
2	–	HpiI (enzyme)
–	2	PdxI (enzyme)
